Earlier results on 3 substances are cited in article PMC10461426.

Series [1] has as its target IL-1R1 (Homo sapiens) (UniProt P14778).
Series [2] has the same target. This is another data set of the same source.
Series [3] has the same target. This is another data set of the same source.

pKd: −log10 of the molar value. Read-outs that look alike come from different tables or passages of the source.

Consider IL-38 (from UniProt Q8WWZ1), for which, in the series with IL-1R1 (Homo sapiens) [1], the pKd (as a rule, −log10 of the Kd, conventionally taken in molar units) was 7.03. As to IL-1beta (from UniProt P01584), in the series with IL-1R1 (Homo sapiens) [2], the pKd is 7.68. As to IL-1Ra (from UniProt P18510), in the series with IL-1R1 (Homo sapiens) [3], the pKd was 7.42.
